Earlier results in article PMC10866363.

Biological target: Trigger factor (Escherichia coli) (UniProt P0A850)

Chain of Trigger factor (P0A850 whole entry): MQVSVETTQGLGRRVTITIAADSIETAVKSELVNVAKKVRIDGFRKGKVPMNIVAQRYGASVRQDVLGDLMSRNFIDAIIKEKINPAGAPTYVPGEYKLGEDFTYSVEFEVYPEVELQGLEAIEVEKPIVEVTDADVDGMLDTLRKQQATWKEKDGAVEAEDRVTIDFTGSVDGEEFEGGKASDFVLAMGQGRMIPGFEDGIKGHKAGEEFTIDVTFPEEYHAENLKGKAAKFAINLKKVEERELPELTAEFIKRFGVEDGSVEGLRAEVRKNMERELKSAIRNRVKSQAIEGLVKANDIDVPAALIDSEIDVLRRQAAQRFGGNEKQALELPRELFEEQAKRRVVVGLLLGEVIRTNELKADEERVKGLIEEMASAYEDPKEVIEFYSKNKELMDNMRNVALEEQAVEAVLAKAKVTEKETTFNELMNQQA

Trigger factor (from UniProt P0A850)
Kd: 2000 nM
